Laboratory results as given in the supplement of paper PMC10567573.

B1: KLHDC10 (parent)
chain: CPIIRIPNRFLRGHRPPPARSGHR

Variants of: B1
Assay: protein stability index of a GFP-peptide fusion (GPS, HEK-293T) (PSI 1-6); higher = more stable
Details: c terminus: a fixed tail appended
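Further: lentivirally expressed fusions sorted by FACS into six bins by GFP to DsRed ratio, PSI derived from sequencing read proportions per bin multiplied by bin number.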

Question: With CPIIRIPNRFLRGHRPPPAQSGHR as the variant, how does the protein stability index read?
Answer: 1.93

Question: For CPIIRIPNRFLRGHRPPPAFSGHR, which protein stability index is on record?
Answer: 2.81

Question: For CPIIRIPNRFLRGHRPPPAPSGHR, which protein stability index is on record?
Answer: 2.16

Question: With CPIIRIPNRFLRGHRPPPALSGHR as the variant, how does the protein stability index read?
Answer: 2.45

Question: For CPIIRIPNRFLRGHRPPPATSGHR, which protein stability index is on record?
Answer: 2.51

Question: Which protein stability index does the source give for CPIIRIPNRFLRGHRPPPADSGHR here?
Answer: 2.73

Question: Which protein stability index does the source give for CPIIRIPNRFLRGHRPPPAGSGHR here?
Answer: 1.95

Question: For CPIIRIPNRFLRGHRPPPAISGHR, which protein stability index is on record?
Answer: 1.38

Question: With CPIIRIPNRFLRGHRPPPAMSGHR as the variant, how does the protein stability index read?
Answer: 2.13

Question: For CPIIRIPNRFLRGHRPPPACSGHR, which protein stability index is on record?
Answer: 1.48

Question: With CPIIRIPNRFLRGHRPPPAVSGHR as the variant, how does the protein stability index read?
Answer: 2.62

Question: For CPIIRIPNRFLRGHRPPPAASGHR, which protein stability index is on record?
Answer: 2.48

Question: For CPIIRIPNRFLRGHRPPPAWSGHR, which protein stability index is on record?
Answer: 1.75

Question: Which protein stability index does the source give for CPIIRIPNRFLRGHRPPPARSGHP here?
Answer: 2.33

Question: With CPIIRIPNRFLRGHRPPPARSGHN as the variant, how does the protein stability index read?
Answer: 1.84

Question: Which protein stability index does the source give for CPIIRIPNRFLRGHRPPPARSGHA here?
Answer: 2.37

Question: With CPIIRIPNRFLRGHRPPPARSGHH as the variant, how does the protein stability index read?
Answer: 2.01

Question: Which protein stability index does the source give for CPIIRIPNRFLRGHRPPPARSGHE here?
Answer: 1.59

Question: Which protein stability index does the source give for CPIIRIPNRFLRGHRPPPARSGHF here?
Answer: 1.31

Question: With CPIIRIPNRFLRGHRPPPARSGHM as the variant, how does the protein stability index read?
Answer: 1.93

Question: For CPIIRIPNRFLRGHRPPPARSGHK, which protein stability index is on record?
Answer: 1.29

Question: Which protein stability index does the source give for CPIIRIPNRFLRGHRPPPARSGHC here?
Answer: 1.82

Question: Which protein stability index does the source give for CPIIRIPNRFLRGHRPPPARSGHY here?
Answer: 1.7

Question: Which protein stability index does the source give for CPIIRIPNRFLRGHRPPPARSGHV here?
Answer: 2.54

Question: With CPIIRIPNRFLRGHRPPPARSGHS as the variant, how does the protein stability index read?
Answer: 2.03

Question: With CPIIRIPNRFLRGHRPPPARSGHI as the variant, how does the protein stability index read?
Answer: 2.99

Question: Which protein stability index does the source give for CPIIRIPNRFLRGHRPPPARSGHD here?
Answer: 2.93

Question: With CPIIRIPNRFLRGHRPPPARSGHG as the variant, how does the protein stability index read?
Answer: 2.1

Question: With CPIIRIPNRFLRGHRPPPARSGHW as the variant, how does the protein stability index read?
Answer: 2.99

Question: With CPIIRIPNRFLRGHRPPPARSGHL as the variant, how does the protein stability index read?
Answer: 2.61

Question: For CPIIRIPNRFLRGHRPPPARAGHR, which protein stability index is on record?
Answer: 1.85

Question: With CPIIRIPNRFLRGHRPPPARRGHR as the variant, how does the protein stability index read?
Answer: 1.97

Question: Which protein stability index does the source give for CPIIRIPNRFLRGHRPPPARHGHR here?
Answer: 1.75

Question: Which protein stability index does the source give for CPIIRIPNRFLRGHRPPPARLGHR here?
Answer: 1.97

Question: For CPIIRIPNRFLRGHRPPPARGGHR, which protein stability index is on record?
Answer: 2.63

Question: With CPIIRIPNRFLRGHRPPPARTGHR as the variant, how does the protein stability index read?
Answer: 1.83

Question: For CPIIRIPNRFLRGHRPPPARMGHR, which protein stability index is on record?
Answer: 1.66

Question: With CPIIRIPNRFLRGHRPPPARKGHR as the variant, how does the protein stability index read?
Answer: 1.65

Question: For CPIIRIPNRFLRGHRPPPARFGHR, which protein stability index is on record?
Answer: 2.91

Question: Which protein stability index does the source give for CPIIRIPNRFLRGHRPPPARNGHR here?
Answer: 2.25

Question: Which protein stability index does the source give for CPIIRIPNRFLRGHRPPPARPGHR here?
Answer: 1.94

Question: For CPIIRIPNRFLRGHRPPPARIGHR, which protein stability index is on record?
Answer: 1.36

Question: For CPIIRIPNRFLRGHRPPPARQGHR, which protein stability index is on record?
Answer: 1.42

Question: Which protein stability index does the source give for CPIIRIPNRFLRGHRPPPARDGHR here?
Answer: 1.75

Question: Which protein stability index does the source give for CPIIRIPNRFLRGHRPPPARVGHR here?
Answer: 1.62

Question: With CPIIRIPNRFLRGHRPPPARWGHR as the variant, how does the protein stability index read?
Answer: 1.83

Question: For CPIIRIPNRFLRGHRPPPARSGRR, which protein stability index is on record?
Answer: 1.67

Question: For CPIIRIPNRFLRGHRPPPARSGNR, which protein stability index is on record?
Answer: 2.43

Question: For CPIIRIPNRFLRGHRPPPARSGQR, which protein stability index is on record?
Answer: 2.06

Question: Which protein stability index does the source give for CPIIRIPNRFLRGHRPPPARSGMR here?
Answer: 1.49

Question: With CPIIRIPNRFLRGHRPPPARSGYR as the variant, how does the protein stability index read?
Answer: 2.01

Question: For CPIIRIPNRFLRGHRPPPARSGPR, which protein stability index is on record?
Answer: 1.67

Question: For CPIIRIPNRFLRGHRPPPARSGER, which protein stability index is on record?
Answer: 1.66

Question: For CPIIRIPNRFLRGHRPPPARSGIR, which protein stability index is on record?
Answer: 1.82

Question: For CPIIRIPNRFLRGHRPPPARSGTR, which protein stability index is on record?
Answer: 2.66

Question: With CPIIRIPNRFLRGHRPPPARSGAR as the variant, how does the protein stability index read?
Answer: 1.85

Question: With CPIIRIPNRFLRGHRPPPARSGGR as the variant, how does the protein stability index read?
Answer: 2.02

Question: For CPIIRIPNRFLRGHRPPPARSGFR, which protein stability index is on record?
Answer: 1.52

Question: Which protein stability index does the source give for CPIIRIPNRFLRGHRPPPARSGWR here?
Answer: 1.59

Question: Which protein stability index does the source give for CPIIRIPNRFLRGHRPPPARSGKR here?
Answer: 1.5

Question: For CPIIRIPNRFLRGHRPPPARSGSR, which protein stability index is on record?
Answer: 1.02

Question: For CPIIRIPNRFLRGHRPPPARSGLR, which protein stability index is on record?
Answer: 1.12

Question: With CPIIRIPNRFLRGHRPPPARSGDR as the variant, how does the protein stability index read?
Answer: 1.38

Question: With CPIIRIPNRFLRGHRPPPARSGVR as the variant, how does the protein stability index read?
Answer: 1.69

Question: With CPIIRIPNRFLRGHRPPPARSAHR as the variant, how does the protein stability index read?
Answer: 1.57

Question: For CPIIRIPNRFLRGHRPPPARSEHR, which protein stability index is on record?
Answer: 1.78

Question: With CPIIRIPNRFLRGHRPPPARSYHR as the variant, how does the protein stability index read?
Answer: 1.98

Question: Which protein stability index does the source give for CPIIRIPNRFLRGHRPPPARSKHR here?
Answer: 1.71

Question: With CPIIRIPNRFLRGHRPPPARSTHR as the variant, how does the protein stability index read?
Answer: 2.39

Question: With CPIIRIPNRFLRGHRPPPARSCHR as the variant, how does the protein stability index read?
Answer: 1.62

Question: Which protein stability index does the source give for CPIIRIPNRFLRGHRPPPARSNHR here?
Answer: 1.95

Question: With CPIIRIPNRFLRGHRPPPARSSHR as the variant, how does the protein stability index read?
Answer: 1.66

Question: For CPIIRIPNRFLRGHRPPPARSLHR, which protein stability index is on record?
Answer: 2.02

Question: With CPIIRIPNRFLRGHRPPPARSQHR as the variant, how does the protein stability index read?
Answer: 1.33

Question: Which protein stability index does the source give for CPIIRIPNRFLRGHRPPPARSIHR here?
Answer: 1.82

Question: With CPIIRIPNRFLRGHRPPPARSFHR as the variant, how does the protein stability index read?
Answer: 2.01

Question: For CPIIRIPNRFLRGHRPPPARSDHR, which protein stability index is on record?
Answer: 2.62

Question: With CPIIRIPNRFLRGHRPPPARSMHR as the variant, how does the protein stability index read?
Answer: 1.91

Question: Which protein stability index does the source give for CPIIRIPNRFLRGHRPPPARSVHR here?
Answer: 2.76

Question: Which protein stability index does the source give for CPIIRIPNRFLRGHRPPPARSRHR here?
Answer: 2.17

Question: For CPIIRIPNRFLRGHRPPPARSHHR, which protein stability index is on record?
Answer: 1.84

Question: Which protein stability index does the source give for CPIIRIPNRFLRGHRPPPKRSGHR here?
Answer: 1.61

Question: Which protein stability index does the source give for CPIIRIPNRFLRGHRPPPIRSGHR here?
Answer: 1.4

Question: Which protein stability index does the source give for CPIIRIPNRFLRGHRPPPFRSGHR here?
Answer: 1.69

Question: With CPIIRIPNRFLRGHRPPPHRSGHR as the variant, how does the protein stability index read?
Answer: 3.04

Question: Which protein stability index does the source give for CPIIRIPNRFLRGHRPPPVRSGHR here?
Answer: 1.48

Question: Which protein stability index does the source give for CPIIRIPNRFLRGHRPPPGRSGHR here?
Answer: 1.82

Question: Which protein stability index does the source give for CPIIRIPNRFLRGHRPPPLRSGHR here?
Answer: 1.46

Question: For CPIIRIPNRFLRGHRPPPRRSGHR, which protein stability index is on record?
Answer: 2.02

Question: With CPIIRIPNRFLRGHRPPPQRSGHR as the variant, how does the protein stability index read?
Answer: 1.48

Question: Which protein stability index does the source give for CPIIRIPNRFLRGHRPPPMRSGHR here?
Answer: 2.12

Question: With CPIIRIPNRFLRGHRPPPNRSGHR as the variant, how does the protein stability index read?
Answer: 2.23

Question: Which protein stability index does the source give for CPIIRIPNRFLRGHRPPPSRSGHR here?
Answer: 1.8

Question: With CPIIRIPNRFLRGHRPPPWRSGHR as the variant, how does the protein stability index read?
Answer: 1.69
